Measurements taken from patent US20140087995A1 (published 2014).
Numbered stars: 1 amine (or outer) side, 2 acyl side, 3 side chain; on linkers, the order of the positions; unused ones are H or OH. Bridge positions count the residues as written; N and C are the ends. * marks the point of attachment. C20 diacid = O=C(O)CCCCCCCCCCCCCCCCCCC(=O)*; γGlu = O=C(O)[C@H](CCC(=O)[*:2])N[*:1]

Key:
[1] = molecular target: T1, human calcitonin receptor (human, UniProt P30988 25-474); assay: ratio of IC50 on human calcitonin receptor (Assay VII) to IC50 on human amylin receptor (Assay V)
T1 construct: whole, on cells; Used as membranes prepared from the transfected cells (Assay VII); also called hCTR; hCT
T1 sequence (looked up): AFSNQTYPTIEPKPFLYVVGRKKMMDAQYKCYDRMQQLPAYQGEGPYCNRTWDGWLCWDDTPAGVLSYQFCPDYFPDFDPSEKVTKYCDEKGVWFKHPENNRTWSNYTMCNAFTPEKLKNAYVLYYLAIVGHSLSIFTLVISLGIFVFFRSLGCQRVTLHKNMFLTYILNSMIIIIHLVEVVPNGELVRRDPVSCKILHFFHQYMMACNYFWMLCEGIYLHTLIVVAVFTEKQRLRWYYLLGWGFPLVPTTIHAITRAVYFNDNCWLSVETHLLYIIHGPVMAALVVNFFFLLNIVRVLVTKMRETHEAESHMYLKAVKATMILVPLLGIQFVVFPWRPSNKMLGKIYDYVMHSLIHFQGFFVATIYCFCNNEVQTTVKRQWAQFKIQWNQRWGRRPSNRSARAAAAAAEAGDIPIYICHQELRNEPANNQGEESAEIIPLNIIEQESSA
Procedure: The resulting pellet was resuspended, homogenized and centrifuged (20.000 rpm, 15 min) in a buffer containing 20 mM Na-HEPES and 0.1 mM EDTA (pH 7.4, buffer 2). The resulting pellet was resuspended in buffer 2 and protein concentration was measured (BCA protein Assay, Pierce). The homogenate was kept cold during the whole procedure. The membranes were kept at −80° C. until use. The assay was performed in a 384 well Optiplate (PerkinElmer) in a total volume of 40 ul. Membranes were mixed with SPA beads. Final concentration of membranes 35 ng/μL final and SPA beads was 0.05 mg/well. Test-compounds were dissolved in DMSO and further diluted in assay buffer (50 mM Hepes, pH 7.4, 1 mM CaCl2, 5 mM MgCl₂, 0.1% OA and 0.02% Tween20). […] The final mixture was incubated with shaking at 400 rpm for 120 min at 25° C. prior to centrifugation (1500 rpm, 10 min). Samples were analyzed on TopCounter™ (Packard). The IC₅₀ was calculated using (one site binding competition analysis) GraphPad Prism5 as a measure of receptor affinity.
Membranes were prepared in the following way; the cells were rinsed with PBS and incubated with Versene for approximately 5 min before harvesting. The cells were flushed with PBS and the cell-suspension was centrifuged for 5 min at 1000 rpm. Cells were homogenized (Ultrathurrax) in a buffer containing 20 mM Na-HEPES and 10 mM EDTA (pH 7.4) and centrifuged at 20.000 rpm for 15 min. The resulting pellet was resuspended, homogenized and centrifuged (20.000 rpm, 15 min) in a buffer containing 20 mM Na-HEPES and 0.1 mM EDTA (pH 7.4, buffer 2). The resulting pellet was resuspended in buffer 2 and protein concentration was measured (BCA protein Assay, Pierce). The homogenate was kept cold during the whole procedure. The membranes were kept at −80° C. until use. Assay was performed in a 384 well Optiplate (PerkinElmer) in a total volume of 40 ul. Membranes were mixed with SPA beads.

rat calcitonin receptor [2] = molecular target: T2, rat calcitonin receptor (rat, UniProt P32214 25-516); assay: ratio of IC50 on rat calcitonin receptor (Assay VIII) to IC50 on rat amylin receptor (Assay VI)
T2 construct: whole, on cells; Used as membranes prepared from the transfected cells (Assay VIII); also called rCTR; rat calcitonin (a) receptor
T2 sequence (looked up): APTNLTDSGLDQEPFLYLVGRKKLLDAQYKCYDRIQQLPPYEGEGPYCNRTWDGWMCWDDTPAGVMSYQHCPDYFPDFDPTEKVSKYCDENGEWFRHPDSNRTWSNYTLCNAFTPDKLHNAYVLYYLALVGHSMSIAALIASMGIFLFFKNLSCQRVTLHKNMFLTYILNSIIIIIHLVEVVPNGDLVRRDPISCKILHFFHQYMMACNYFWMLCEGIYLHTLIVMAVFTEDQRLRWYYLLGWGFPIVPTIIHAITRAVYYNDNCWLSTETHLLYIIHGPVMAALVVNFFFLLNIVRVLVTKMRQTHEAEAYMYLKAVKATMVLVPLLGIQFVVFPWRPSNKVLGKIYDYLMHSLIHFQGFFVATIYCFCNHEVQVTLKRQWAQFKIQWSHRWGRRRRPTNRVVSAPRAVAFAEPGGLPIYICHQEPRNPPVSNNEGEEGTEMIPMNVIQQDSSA

[3] = molecular target: T3, rat amylin receptor (rat calcitonin receptor + rat RAMP 3) (rat, UniProt P32214 25-516; Q9JJ73 23-147); assay: SPA competition binding, displacement of 125I-rat amylin from membranes of BHK tk'ts 13 cells transfected with rat calcitonin receptor + rat RAMP 3 (Assay VI)
T3 construct: whole, on cells; Used as membranes prepared from the transfected cells (Assay VI); also called rAmylin-R; rat amylin 3(a) receptor
T3 sequence (looked up) 1: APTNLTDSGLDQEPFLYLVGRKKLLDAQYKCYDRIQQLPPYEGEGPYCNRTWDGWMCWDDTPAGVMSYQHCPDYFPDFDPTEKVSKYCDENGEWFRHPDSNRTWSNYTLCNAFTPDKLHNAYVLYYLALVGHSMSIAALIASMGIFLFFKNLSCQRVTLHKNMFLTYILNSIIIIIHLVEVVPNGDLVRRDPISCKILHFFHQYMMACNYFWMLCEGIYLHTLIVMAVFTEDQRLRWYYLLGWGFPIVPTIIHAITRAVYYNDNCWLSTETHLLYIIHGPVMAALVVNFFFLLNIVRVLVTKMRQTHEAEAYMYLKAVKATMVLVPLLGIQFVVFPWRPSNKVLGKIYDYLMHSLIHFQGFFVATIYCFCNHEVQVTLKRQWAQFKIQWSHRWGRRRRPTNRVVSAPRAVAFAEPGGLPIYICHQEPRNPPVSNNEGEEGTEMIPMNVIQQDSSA
T3 sequence (looked up) 2: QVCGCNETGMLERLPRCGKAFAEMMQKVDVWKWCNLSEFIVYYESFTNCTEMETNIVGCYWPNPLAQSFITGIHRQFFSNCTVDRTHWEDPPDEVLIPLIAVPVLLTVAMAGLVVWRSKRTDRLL

rat calcitonin receptor [4] = molecular target: T2, rat calcitonin receptor; assay: SPA competition binding, displacement of 125I-calcitonin from membranes of BHK tk'ts 13 cells transfected with rat calcitonin receptor (Assay VIII)

B1: N^-1-[(4S)-4-carboxy-4-(19-carboxynonadecanoylamino)butanoyl]-Gly[Arg1,His14,Arg17,Pro21,Pro27,Pro34]-h-amylin (peptide)
peptide: {C20 diacid-γGlu}-GRCNTATCATQRLAHFLRHSSPNFGAIPSSTNVGPNTY-NH2
modifications: disulfide 3-8
SMILES: CC[C@H](C)[C@H](NC(=O)[C@H](C)NC(=O)CNC(=O)[C@H](Cc1ccccc1)NC(=O)[C@H](CC(N)=O)NC(=O)[C@@H]1CCCN1C(=O)[C@H](CO)NC(=O)[C@H](CO)NC(=O)[C@H](Cc1c[nH]cn1)NC(=O)[C@H](CCCNC(=N)N)NC(=O)[C@H](CC(C)C)NC(=O)[C@H](Cc1ccccc1)NC(=O)[C@H](Cc1c[nH]cn1)NC(=O)[C@H](C)NC(=O)[C@H](CC(C)C)NC(=O)[C@H](CCCNC(=N)N)NC(=O)[C@H](CCC(N)=O)NC(=O)[C@@H](NC(=O)[C@H](C)NC(=O)[C@@H]1CSSC[C@H](NC(=O)[C@H](CCCNC(=N)N)NC(=O)CNC(=O)CC[C@H](NC(=O)CCCCCCCCCCCCCCCCCCC(=O)O)C(=O)O)C(=O)N[C@@H](CC(N)=O)C(=O)N[C@@H]([C@@H](C)O)C(=O)N[C@@H](C)C(=O)N[C@@H]([C@@H](C)O)C(=O)N1)[C@@H](C)O)C(=O)N1CCC[C@H]1C(=O)N[C@@H](CO)C(=O)N[C@@H](CO)C(=O)N[C@H](C(=O)N[C@@H](CC(N)=O)C(=O)N[C@H](C(=O)NCC(=O)N1CCC[C@H]1C(=O)N[C@@H](CC(N)=O)C(=O)N[C@H](C(=O)N[C@@H](Cc1ccc(O)cc1)C(N)=O)[C@@H](C)O)C(C)C)[C@@H](C)O
notes: not restated for each compound
For B1, the “Ratio hCT/hAmylin binding” value [1] was 36.2, the “Ratio rCT/rAmylin binding” value (rat calcitonin receptor [2]) was 97.7 and the IC50 [3] was 0.674 nM. The IC50 (rat calcitonin receptor [4]) was 65.9 nM.

{C20 diacid-γGlu}-GRCNTATCATQRLAAFLRHSSPNFGAIPSSTNVGPNTY-NH2 (disulfide 3-8, not restated for each compound) was tested, and the “Ratio hCT/hAmylin binding” value [1] was 26.5, the “Ratio rCT/rAmylin binding” value (rat calcitonin receptor [2]) was 129 and the IC50 [3] was 0.436 nM. It also gave an IC50 (rat calcitonin receptor [4]) of 56.3 nM.
